Experimental data taken from paper PMC9603430, “Folding Mechanism and Aggregation Propensity of the KH0 Domain of FMRP and Its R138Q Pathological Variant” (International Journal of Molecular Sciences, 2022).

Target: the molecule itself
Assay: thioflavin T fluorescence; 20 μM protein pre-incubated at 70 °C for 10 min, stoichiometric ThT, 20 mM sodium phosphate pH 7.2, 100 mM NaCl; self-association into fibrillar aggregates

B1: KH0 domain of FMRP, R138Q pathological variant, res 122-205 (domain or fragment)
chain: not shown
notes: KH0 domain of human FMRP, residues 122-205, Uniprot Q06787, with the missense mutation R138Q found in FXS patients; Made by site-directed mutagenesis of the KH0 construct; the histidine tag was removed by thrombin for the fibrillation/aggregation experiments; also called KH0-R138Q; variant protein; source: E. coli BL-21 (DE3), purified (HisTrap FF, thrombin cleavage, Superdex75 size exclusion)
B1: binds.
